The results in this text go back to US12527821B2, “Compositions and methods related to tumor cell killers and vaccines” (THE BRIGHAM AND WOMEN'S HOSPITAL, INC., priority 2018, dated 2026).

One test relates to rGBMi2-TK cells. Briefly: GCV-induced clearance of HSV-TK engineered rGBM in vitro (cell viability). It is filed as cell-based, human. The conditions noted are these: in comparison to controls.
The test system of test [1] is CT2a-GMCSF-mIFNaR1KO engineered with LV-IFNβ/zeo-HSV/TK. Description: Cell viability after GCV treatment. The class given is cell-based, mouse. The text has this: FIG. 2A details the concept to test if CT2a-IFNaR1-KO can be engineered with LV-IFNβ/zeo-HSV/TK.
For another test, the system named is rGBMnDR4/5-ST-TK. Description: GCV titration of DR4/5 knockout line with HSV-TK in vitro. It is filed as cell-based, human. The settings on record: as opposed to non-TK control lines. As for the experimental part: (§1) Thus, should tumors acquire a DRL-resistant phenotype during adjuvant clinical therapy and tumor recurrence, TK-induced bystander effect of therapeutic self-cells might still provide robust treatment efficacy.
(§2) Lentiviral transductions and engineering of stable cell lines: Lentiviral packaging was performed by transfection of 293T cells as previously described (73), and cells were transduced with lentiviral vectors at M.O.I of 2 in medium containing protamine sulfate (2 μg/ml). For bioluminescence imaging, cancer cells were transduced with LV-Pico2-Fluc-mCherry, LV-Pico2-Rluc-mCherry, or LV-Pico2-Fluc-GFP and selected by FACS using a BD FACSAriaTM Fusion cell sorter or puromycin selection (1 μg/ml) in culture. GFP or mCherry expression was visualized by fluorescence microscopy. […] Cell viability was measured using an ATP-dependent luminescent reagent (CellTiter Glo, Promega) for non-Fluc expressing cells, or with luciferin or coelenterazine for Fluc- and Rluc-expressing cells, respectively. Caspase activity was determined using a DEVD-aminoluciferin assay (Caspase-3/7 Glo, Promega) according to the manufacturer's instructions. Experiments were performed in triplicate. […]

A further test concerns rGBMiDR4/5-ST-TK. The description is as above. The class given is cell-based, human. The settings on record: as opposed to non-TK control lines. As for the experimental part:
as §1, §2

In a further test the test system is rGBMnDR4/5-ST-TK-GF1. Briefly: Intracranial implantation of sECM-encapsulated rGBMnDR4/5-ST-TK-GF1 in SCID mice, growth and GCV clearance (BLI). The class given is in vivo. The text has this:
(1) Nodular recurrent GBM resection model: Local retention of therapeutic cells can be achieved by encapsulation of therapeutic cells into biodegradable synthetic extracellular matrix (sECM) before implantation into the resection cavity (16).

In another test the test system is rGBMi2-ST-TK. Briefly: 18F-FHBG PET imaging of GCV-induced cell clearance. The class given is in vivo, mice. The conditions noted are these: after 10 days of daily GCV treatment.
Test [2] concerns 293 Ts engineered with LV-IFNβ/zeo-HSV/TK. Briefly: Cell viability after GCV treatment. The class given is cell-based.
The subject of the next test is GBM8 (sGBMi). Briefly: TRAIL sensitivity screen/titration (cell viability). It is filed as cell-based, human. The conditions noted are these: invasive GBM cell line. The text has this: (§3) To investigate the therapeutic efficacy of receptor-targeted molecules, the Inventors tested a panel of different cancer cell lines for their susceptibility to treatment with cell surface receptor ligands/antagonists targeting CD36 (thrombospondin-1, TSP), epidermal growth factor receptor (EGFR) (EGFR-blocking nanobody, Nb), heterodimeric interleukin 20 receptor (IL20R) comprised of subunits α and β (interleukin 24, IL24), and DRs (TRAIL) (FIG. 6 C). A nodular (n) and an invasive (i) GBM cell line (Gli36Δ-EGFR and GBM8, respectively) were screened and found to be DR ligand (DRL)-sensitive(s) (herein referred to as sGBMn and sGBMi). The following non-GBM cancer lines were also identified as DRL-sensitive: PC3 (sPCm), Jurkat (sTCL), HCT116 (sCC), and MDA231-BrM2a (sBCm). […] In addition to the above DRL-sensitive(s) cell lines, three DRL-resistant (r) GBM cell lines were identified (GBM23, GBM64, GBM46, herein referred to as rGBMi1, rGBMi2, rGBMi3) (FIG. 6D). Based on these findings, DR4 and DR5 were chosen as the most suitable candidates to further investigate the therapeutic potential of receptor self-targeted therapies.
(§4) Lentiviral transductions and engineering of stable cell lines: Lentiviral packaging was performed by transfection of 293T cells as previously described (73), and cells were transduced with lentiviral vectors at M.O.I of 2 in medium containing protamine sulfate (2 μg/ml). For bioluminescence imaging, cancer cells were transduced with LV-Pico2-Fluc-mCherry, LV-Pico2-Rluc-mCherry, or LV-Pico2-Fluc-GFP and selected by FACS using a BD FACSAriaTM Fusion cell sorter or puromycin selection (1 μg/ml) in culture. GFP or mCherry expression was visualized by fluorescence microscopy. […] Cell viability was measured using an ATP-dependent luminescent reagent (CellTiter Glo, Promega) for non-Fluc expressing cells, or with luciferin or coelenterazine for Fluc- and Rluc-expressing cells, respectively. Caspase activity was determined using a DEVD-aminoluciferin assay (Caspase-3/7 Glo, Promega) according to the manufacturer's instructions. Experiments were performed in triplicate. For treatments with conditioned medium, plasmid vectors coding for secretable expression of CD36-targeting ligand 3TSR (a functional thrombospondin-1, TSP-1 analog) (09), EGFR-blocking ligand NB (12), IL-20Rα/β-targeting ligand IL-24 (69), and DR ligand S-TRAIL (69) were transfected into 293T cells. Medium was changed the next day, collected 40 hours after transfection, and frozen at −80° C. until further use.

Another test has as its system Gli36Δ-EGFR (sGBMn). The test is described as above. It is filed as cell-based, human. The settings on record: nodular GBM cell line.
Text: as §3, §4

The next test deals with PC3 (sPCm). The description is as above. The class given is cell-based, human.
Text: as §3, §4

For the next test, the system named is GBM46 (rGBMi3). The description is as above. It is filed as cell-based, human.
Text: as §3, §4

The next test relates to GBM23 (rGBMi1). Described as above. The class given is cell-based, human.
Text: as §3, §4

The next test concerns HCT116 (sCC). The description is as above. It is filed as cell-based, human.
Text: as §3, §4

The next test relates to MDA231-BrM2a (sBCm). The description is as above. It is filed as cell-based, human.
Text: as §3, §4

The test system of a further test is Jurkat (sTCL). The description is as above. The class given is cell-based, human.
Text: as §3, §4

Another test deals with GBM64 (rGBMi2). Described as above. The class given is cell-based, human.
Text: as §3, §4

Test [3] relates to panel of different cancer cell lines. Description: Screen of receptor-targeted ligands/antagonists on a panel of cancer cell lines. The class given is cell-based, human. The conditions noted are these: 72 hours after treatment; versus TSP, Nb, IL24.
Text: To investigate the therapeutic efficacy of receptor-targeted molecules, the Inventors tested a panel of different cancer cell lines for their susceptibility to treatment with cell surface receptor ligands/antagonists targeting CD36 (thrombospondin-1, TSP), epidermal growth factor receptor (EGFR) (EGFR-blocking nanobody, Nb), heterodimeric interleukin 20 receptor (IL20R) comprised of subunits α and β (interleukin 24, IL24), and DRs (TRAIL) (FIG. 6 C). A nodular (n) and an invasive (i) GBM cell line (Gli36Δ-EGFR and GBM8, respectively) were screened and found to be DR ligand (DRL)-sensitive(s) (herein referred to as sGBMn and sGBMi). […]
as §2, with “For bioluminescence imaging, cancer cells were transduced with LV-Pico2-Fluc-mCherry, LV-Pico2-Rluc-mCherry, or LV-Pico2-Fluc-GFP and selected by FACS using a BD FACSAriaTM Fusion cell sorter or puromycin selection (1 μg/ml) in culture.” left out, “instructions.” for “instructions. Experiments were performed in triplicate.”

Description for rGBMi2-ST-TK: PET imaging: Mice implanted intracranially with rGBMi2-TK-GF1 were fasted for 4 hours before imaging, anesthetized with 2% isoflurane and 100% oxygen, and injected with 500 μCi of 18F-FHBG via the tail vein. Two hours later, a static dataset was acquired for 60 minutes in 1 bed position (FOV 4.2 cm) using an energy window of 250-700 keV for each mouse. Images were reconstructed using a 2D OSEM algorithm with 2 iterations and 16 subsets. For measuring the mean and maximum standardized uptake values (SUVmean and SUVmax) and metabolic tumor volume (MTV), three-dimensional (3D) regions of interest were drawn over the mouse brain, and uptake values were measured using the explore Vista software (GE Healthcare). The maximum intensity projection images were generated using ImageJ. After the baseline PET scan at day 0, mice were treated daily with GCV (10 mg/kg) and imaged again by PET at day 10 after GCV treatment.
Description for rGBMi2-TK cells: Cell viability and caspase assays: Tumor cells were plated in 96-well plates and treated with different doses of S-TRAIL for 24 hours and different doses of GCV for up to 96 hours. Cell viability was measured using an ATP-dependent luminescent reagent (CellTiter Glo, Promega) for non-Fluc expressing cells, or with luciferin or coelenterazine for Fluc- and Rluc-expressing cells, respectively. Caspase activity was determined using a DEVD-aminoluciferin assay (Caspase-3/7 Glo, Promega) according to the manufacturer's instructions. Experiments were performed in triplicate.

In the case of `Nc1nc2c(ncn2COC(CO)CO)c(=O)[nH]1` [GCV, Ganciclovir], the “elimination of rGBMi2-TK cells” value with rGBMi2-TK cells is “dose- and time-dependent elimination”. The “cell-viability after GCV-treatment” value in [1] and in [2] was “dose-dependent reduction of cell-viability” each time. Moreover, the “cell elimination by GCV” value in the test with rGBMnDR4/5-ST-TK and in the test on rGBMiDR4/5-ST-TK was “dose-dependent cell elimination” throughout. In addition, in the test on rGBMnDR4/5-ST-TK-GF1 (after initiation of GCV therapy), the “time to drop of BLI signal back to baseline” value is at most 9 days. Further, the “GCV-induced (HSV-TK mediated) cell clearance” value with rGBMnDR4/5-ST-TK-GF1 (mouse, in vivo) is reported as “successful cell clearance”. The “tumor-specific PET signal intracranially” value in the test on rGBMi2-ST-TK is reported as “no longer visible”.

B1: TNF-related apoptosis-inducing ligand (protein, listed as Homo sapiens)
chain: MAMMEVQGGPSLGQTCVLIVIFTVLLQSLCVAVTYVYFTNELKQMQDKYSKSGIACFLKEDDSYWDPNDEESMNSPCWQVKWQLRQLVRKMILRTSEETISTVQEKQQNISPLVRERGPQRVAAHITGTRGRSNTLSSPNSKNEKALGRKINSWESSRSGHSFLSNLHLRNGELVIHEKGFYYIYSQTYFRFQEEIKENTKNDKQMVQYIYKYTSYPDPILLMKSARNSCWSKDAEYGLYSIYQGGIFELKENDRIFVSVTNEHLIDMDHEASFFGAFLVG
notes: death receptor (DR4/5) ligand used to treat cancer cell lines
With B1, the “susceptibility to DR ligand (DRL)” value in the test on GBM8 (sGBMi) was “sensitive”; in the test with Gli36Δ-EGFR (sGBMn) it was “sensitive”; with PC3 (sPCm), “DRL-sensitive”; in the test on GBM46 (rGBMi3), “DRL-resistant”; in the test on GBM23 (rGBMi1), “DRL-resistant”; with HCT116 (sCC), “DRL-sensitive”. Moreover, the figures for the “susceptibility to DR ligand (DRL)” value in the test with MDA231-BrM2a (sBCm), in the test with Jurkat (sTCL) and in the test with GBM64 (rGBMi2) were “DRL-sensitive”, “DRL-sensitive” and “DRL-resistant”, respectively. For the same molecule, in test [3], the “efficacy in comparison to the other tested ligands” value is recorded as “most effective agent”.
